Laboratory results reported in patent US20040087497.

Assays:
[1] = target: T1, Suc-Leu-Ala-Gly-Dox
T1 chain: XAX

[2] = target: T2, Suc-βAla-Leu-Ala-Leu-Dox
T2 chain: XLAX

B1: human CD10 (protein)
chain: GKSESQMDITDINTPKPKKKQRWTPLEISLSVLVLLLTIIAVTMIALYATYDDGICKSSDCIKSAARLIQNMDATTEPCTDFFKYACGGWLKRNVIPETSSRYGNFDILRDELEVVLKDVLQEPKTEDIVAVQKAKALYRSCINESAIDSRGGEPLLKLLPDIYGWPVATENWEQKYGASWTAEKAIAQLNSKYGKKVLINLFVGTDDKNSVNHVIHIDQPRLGLPSRDYYECTGIYKEACTAYVDFMISVARLIRQEERLPIDENQLALEMNKVMELEKEIANATAKPEDRNDPMLLYNKMTLAQIQNNFSLEINGKPFSWLNFTNEIMSTVNISITNEEDVVVYAPEYLTKLKPILTKYSARDLQNLMSWRFIMDLVSSLSRTYKESRNAFRKALYGTTSETATWRRCANYVNGNMENAVGRLYVEAAFAGESKHVVEDLIAQIREVFIQTLDDLTWMDAETKKRAEEKALAIKERIGYPDDIVSNDNKLNNEYLELNYKEDEYFENIIQNLKFSQSKQLKKLREKVDKDEWISGAAVVNAFYSSGRNQIVFPAGILQPPFFSAQQSNSLNYGGIGMVIGHEITHGFDDNGRNFNKDGDLVDWWTQQSASNFKEQSQCMVYQYGNFSWDLAGGQHLNGINTLGENIADNGGLGQAYRAYQNYIKKNGEEKLLPGLDLNHKQLFFLNFAQVWCGTYRPEYAVNSIKTDVHSPGNFRIIGTLQNSAEFSEAFHCRKNSYMNPEKKCRVW
Percent Conversion/Hour to Gly-Dox, CD10 transfected CHO Clone 8 (Percent Conversion/Hour) [1]: 0.61 | conversion rate to Gly-Dox, CD10 transfected CHO Clone 8 [1]: 0.06 mM/h | Percent Conversion/Hour to Leu-Dox, CD10 transfected CHO Clone 8 (Percent Conversion/Hour) [2]: 3 | conversion rate to Leu-Dox, CD10 transfected CHO Clone 8 [2]: 0.3 mM/h
